Data: PMC4694547

Molecular target: HydABCD unit of the synthetic Caldanaerobacter subterranus NADH-dependent [FeFe]-hydrogenase complex (with HydC^His) (Caldanaerobacter subterranus subsp. tengcongensis)
Assay: SEC-MALS; IMAC-purified enzyme on a MAbPac SEC-1 column, 50 mM Tris.HCl pH 7.5, 150 mM NaCl, 0.5 ml/min; peak fraction analysed by SDS-PAGE

HydABCD unit of the synthetic Caldanaerobacter subterranus NADH-dependent [FeFe]-hydrogenase complex (with HydC^His)
stoichiometry N: 2
